In PMC12412103, “An Amyloidogenic Fragment of the Spike Protein from SARS-CoV‑2 Virus Stimulates the Aggregation and Toxicity of Parkinson’s Disease Protein Alpha-Synuclein” (ACS Chemical Neuroscience, 2025):

Biological target: mS194 (Spike 194–203 monomer) (Severe acute respiratory syndrome coronavirus 2, UniProt P0DTC2)

Row | Substance | effect of fAβ on mS194 aggregation | increase of ThT fluorescence intensity of mS194 versus mS194 alone [fold]
1 | fAβ1–42 | acceleration of mS194 aggregation | –
2 | fAβ25–35 (GSNKGAIIGLM; Amyloid-beta protein 42 fibrillar; UniProt P05067 696-706, looked up, fragment) | acceleration of mS194 aggregation | 4
